What was measured:
[1] = biological target: T1, synthetic Aβ protofibrils (Aβ1-42-derived protofibrils) (UniProt P05067 672-713); experiment: Octet BLI (Protein G sensor); PF 3.67 nM
monomeric Aβ [2] = biological target: T2, monomeric Aβ (UniProt P05067 672-713); experiment: SPR
[3] = biological target: T1, synthetic Aβ protofibrils …; experiment: Octet BLI (Protein G sensor); PF 14.7 nM
[4] = biological target: T1, synthetic Aβ protofibrils …; experiment: Octet BLI (Protein G sensor); PF 0.9167 nM
monomeric Aβ [5] = biological target: T2, monomeric Aβ; experiment: SPR; remark: listed apart in the source
[6] = biological target: T1, synthetic Aβ protofibrils …; experiment: Octet BLI (Protein G sensor); PF 14.7 nM; LB
[7] = biological target: T1, synthetic Aβ protofibrils …; experiment: Octet BLI (Protein G sensor); PF 0.9167 nM; LB
[8] = biological target: T1, synthetic Aβ protofibrils …; experiment: Octet BLI (Protein G sensor); PF 3.67 nM; LB
monomeric Aβ [9] = biological target: T2, monomeric Aβ; experiment: SPR; remark: listed apart in the source
monomeric Aβ [10] = biological target: T2, monomeric Aβ; experiment: SPR; remark: listed apart in the source
monomeric Aβ [11] = biological target: T2, monomeric Aβ; experiment: BIAcore SPR
monomeric Aβ [12] = biological target: T2, monomeric Aβ; experiment: BIAcore SPR; remark: listed apart in the source
monomeric Aβ [13] = biological target: T2, monomeric Aβ; experiment: BIAcore SPR; remark: listed apart in the source

T2 sequence (P05067 672-713): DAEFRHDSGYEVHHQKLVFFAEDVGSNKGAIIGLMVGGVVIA
T1 sequence (P05067 672-713): as above

B1: B90 (hybridoma-purified mAb) (antibody, V domains shown)
VH: QVQLVESGGGVVQPGRSLRLSCAASGFTFSSYGMHWVRQAPGKGLEWVAIIWYDGSKKYYADSVKGRFTISRDNSKNTLYLQMNSLRVEDTAVYYCARRGRVGATRDYYYYSMDVWGQGTTVTVSS
VL: AIQMTQSPSSLSASVGDRVTITCRASQGIRNDLGWFHQKPGKAPKLLIYAASSLQSGVPSRFSGSGSGTDFTLTISSLQPEDFATYYCLQDYVYPWTFGQGTKVEIK
With B1 the Kd [1] was < 1 pM, the koff (monomeric Aβ [2]) was 0.00722 s⁻¹ and the Kd [3] was < 1 pM. For the same binder, the Kd [4] was < 1 pM.

B2: B24 (hybridoma-purified mAb) (antibody, V domains shown)
VH: EVQLLESGGGLVQPGGSLRLSCAASGFTFSSYAMTWVRQAPGEGLEWVSTISGSGIRTYYADSVKGRFTISRDNSKNTMYLQMNSLRAEDTAVYYCAKDGLTGDRRWYFDLWGRGTLVTVSS
VL: EIVMTQSPATLSLSPGERATLSCRASQSVSSSYFSWYQQKPGQAPRLLIYGASTRATGIPARFSGSGSGTDFTLTISSLQPEDFAVYYCQQDSNLPLTFGGGTKVEIK
For B2, the koff (monomeric Aβ [5]) was 0.0956 s⁻¹, the Kd [6] was < 1 pM and the Kd [7] was < 1 pM. The Kd [8] was < 1 pM.

B3: B54 (hybridoma-purified mAb) (antibody, V domains shown)
VH: QVQLVESGGGVVQPGRSLRLSCAASGFTFSTYGMHWVRQAPGKGLEWVALIWYDGSKKYYADSVQGRFTISRDSSKNTLYLQMNSLRVEDTAVYYCARRGRVGVTRNYYYYGMDVWGQGTTVTVSS
VL: AIQMTQSPSSLSASVGDRVTITCRTSQDIRNDLGWFQQKPGKAPKFLIYPASSLQGGVPSRFSGSGSGTDFILTISSLQPEDFATYYCLQDYNFPWTFGEGTKVEIK
B3 was tested, and the Kd [1] was < 1 pM, the koff (monomeric Aβ [9]) was 0.00526 s⁻¹ and the Kd [3] was < 1 pM. The Kd [4] was < 1 pM.

B4: B73 (hybridoma-purified mAb) (antibody, V domains shown)
VH: QLQLQMSGPGLVKPSETLSLTCTVSGGSISSSSYYWGWIRQSPGKGLEWIGSIYYSGRTYYNPSLKSRVTISVDTSKNQFSLKLSSVTAADTAMYYCARRSSGRPYYWGQGTLVTVSS
VL: QAVVTQESALTTSPGGTVILTCRSSTGAVTTSNYANWVQEKPDHLFTGLIGETNNRAPGVPVRFSGSLIGDKAALTITGAQTEDDAMYFCALWYSTHWVFGGGTKLTVL
With B4 the Kd [1] was < 1 pM, the koff (monomeric Aβ [10]) was 0.0012 s⁻¹ and the Kd [3] was < 1 pM. The Kd [4] was < 1 pM.

B5: B51 (hybridoma-purified mAb) (antibody, V domains shown)
VH: QVQLVESGGGVVQPGRSLRLSCAASGFTFSSHGMHWVRQAPGKGLEWVAVIWYDGSNKNYADSVKGRFTISRDNSKNTLYLQMNSLRAEDTAVYYCARRGRVGVTRNYYYYGMDVWGQGTTVTVSS
VL: AIQMTQSPSSLSASVGDRVTITCRASQGIRNDLGWFQQKPVKAPKLLIYPASSLQSGVPSRFSGSGSGTDFTLTISSLQPEDFATYYCLQDYNYPWTFGQGTKVEIK
For B5, the Kd [1] was < 1 pM, the koff (monomeric Aβ [9]) was 0.0144 s⁻¹ and the Kd [3] was < 1 pM. The Kd [4] was < 1 pM.

B6: B28 (hybridoma-purified mAb) (antibody, V domains shown)
VH: QVQLVESGGGVVQPGRSVRLSCAATGFTFSSYGMHWVRQAPGKGLEWVAVIWFDGSNEYYADSVRGRFTISRDNSKNTLYLQMNSLRAEDTAVYYCARRGRVGVTRNYYYYNMDVWGQGTTVTVSS
VL: AIQMTQSPSSLSASVGDRVTITCRASQGIRNDLGWFQQKPGKAPKLLIYPASSLQSGVPSRFSGSGSDTDFTLTISSLQPEDFATYYCLQDYNFPFTFGPGTKVDIK
With B6 the Kd [1] was < 1 pM, the koff (monomeric Aβ [11]) was 9.41e-05 s⁻¹ and the Kd [3] was 21800 pM.

B7: B75 (hybridoma-purified mAb) (antibody, V domains shown)
VH: QVQLVESGGGVVQPGRSLRLSCAASGFTFSSYGMHWVRQAPGKGLEWVAVIWYDGSYKYYADSVKGRFTISRDNSKNTLYLQMNSLRVEDTAVYYCAREGRTYYDFLTGYFDFWGQGTLVTVSS
VL: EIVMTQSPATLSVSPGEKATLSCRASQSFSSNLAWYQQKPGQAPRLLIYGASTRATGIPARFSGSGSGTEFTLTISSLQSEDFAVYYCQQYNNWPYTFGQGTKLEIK
For B7, the koff (monomeric Aβ [12]) was 0.00238 s⁻¹.

B8: B19 reprep (=B24) (antibody, V domains shown)
VH: EVQLLESGGGLVQPGGSLRLSCAASGFTFSSYAMTWVRQAPGEGLEWVSTISGSGIRTYYADSVKGRFTISRDNSKNTMYLQMNSLRAEDTAVYYCAKDGLTGDRRWYFDLWGRGTLVTVSS
VL: EIVMTQSPATLSLSPGERATLSCRASQSVSSSYFSWYQQKPGQAPRLLIYGASTRATGIPARFSGSGSGTDFTLTISSLQPEDFAVYYCQQDSNLPLTFGGGTKVEIK
B8 was tested, and the koff (monomeric Aβ [13]) was 6.58e-07 s⁻¹.

B9: B60 (antibody, V domains shown)
VH: QVQLVESGGGVVQPGRSLRLSCAASGFTFSSHGMHWVRQAPGKGLEWVAVIWYDGSNKNYADSVKGRFTISRDNSKNTLYLQMNSLRAEDTAVYYCARRGRVGVTRNYYYYGMDVWGQGTTVTVSS
VL: AIQMTQSPSSLSASVGDRVTITCRASQGIRNDLGWFQQKPVKAPKLLIYPASSLQSGVPSRFSGSGSGTDFTLTISSLQPEDFATYYCLQDYNYPWTFGQGTKVEIK
With B9 the koff (monomeric Aβ [12]) was 0.00356 s⁻¹.
